According to US20240309061A1:
Values belong to the substance of their own block, whether it stands above or below them.

Tests used:
[1] = target: IL-2Rαβ subunits on U2OS cells; test: cell-based or functional assay
[2] = target: IL-2Rβγ subunits on U2OS cells; test: cell-based or functional assay
[3] = target: Rhesus IL-2Rα, polyhistidine-tagged (rhesus) (UniProt Q5MNY4); test: SPR (Biacore T200), ratio to human IL-2Rα
[4] = target: Mouse IL-2Rα, polyhistidine-tagged (mouse) (UniProt P01590); test: SPR (Biacore T200), ratio to human IL-2Rα
[5] = target: Human IL-2Rα, polyhistidine-tagged (human) (UniProt P01589); test: SPR (Biacore T200), ratio to human IL-2Rα
[6] = target: Rat IL-2Rα, polyhistidine-tagged (rat) (UniProt P26897); test: SPR (Biacore T200), ratio to human IL-2Rα
[7] = target: Cynomolgus IL-2Rα, polyhistidine-tagged (cynomolgus) (UniProt H6WS54); test: SPR (Biacore T200), ratio to human IL-2Rα
[8] = target: Human IL-2Rβγ on CD8+ T and NK cells in whole blood (human) (UniProt P14784)
[9] = target: Rhesus IL-2Rβγ on CD8+ T and NK cells in whole blood (rhesus monkey)
[10] = target: Human IL-2Rβγ on CD8+ T and NK cells in whole blood (human) (UniProt P14784); remark: listed apart in the source
[11] = target: Cynomolgus/Rhesus IL-2Rβ, polyhistidine-tagged (cynomolgus/rhesus) (UniProt Q38J85); test: SPR (Biacore T200), ratio to human IL-2Rβ
[12] = target: Human IL-2Rβ, polyhistidine-tagged (human) (UniProt P14784); test: SPR (Biacore T200), ratio to human IL-2Rβ
[13] = target: Rhesus IL-2Rα, polyhistidine-tagged (rhesus) (UniProt Q5MNY4); test: SPR (Biacore T200), His-tagged receptor
[14] = target: Mouse IL-2Rα, polyhistidine-tagged (mouse) (UniProt P01590); test: SPR (Biacore T200), His-tagged receptor
[15] = target: Cynomolgus/Rhesus IL-2Rβ, polyhistidine-tagged (cynomolgus/rhesus) (UniProt Q38J85); test: SPR (Biacore T200), His-tagged receptor
[16] = target: Human IL-2Rα, polyhistidine-tagged (human) (UniProt P01589); test: SPR (Biacore T200), His-tagged receptor
[17] = target: Rat IL-2Rα, polyhistidine-tagged (rat) (UniProt P26897); test: SPR (Biacore T200), His-tagged receptor
[18] = target: Cynomolgus IL-2Rα, polyhistidine-tagged (cynomolgus) (UniProt H6WS54); test: SPR (Biacore T200), His-tagged receptor
[19] = target: Human IL-2Rβ, polyhistidine-tagged (human) (UniProt P14784); test: SPR (Biacore T200), His-tagged receptor
[20] = target: Rhesus IL-2Rβγ on CD8+ T and NK cells in whole blood (rhesus monkey); remark: listed apart in the source

Chain of Cynomolgus/Rhesus IL-2Rβ, polyhistidine-tagged (cynomolgus/rhesus) (Q38J85 27-240 limits assumed): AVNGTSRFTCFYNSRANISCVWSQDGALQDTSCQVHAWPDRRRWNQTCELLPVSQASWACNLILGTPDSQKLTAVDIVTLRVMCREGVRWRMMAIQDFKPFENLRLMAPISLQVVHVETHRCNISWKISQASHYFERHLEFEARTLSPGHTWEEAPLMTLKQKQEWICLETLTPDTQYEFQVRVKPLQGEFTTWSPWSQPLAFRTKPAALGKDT
Chain of Mouse IL-2Rα, polyhistidine-tagged (mouse) (P01590 22-236 limits assumed): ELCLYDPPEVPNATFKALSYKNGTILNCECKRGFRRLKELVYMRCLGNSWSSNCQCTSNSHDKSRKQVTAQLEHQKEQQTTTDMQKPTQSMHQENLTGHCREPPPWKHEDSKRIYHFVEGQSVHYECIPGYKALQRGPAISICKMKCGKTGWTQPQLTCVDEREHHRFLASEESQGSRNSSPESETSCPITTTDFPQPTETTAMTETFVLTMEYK
Chain of Human IL-2Rβ, polyhistidine-tagged (human) (P14784 27-239 limits assumed): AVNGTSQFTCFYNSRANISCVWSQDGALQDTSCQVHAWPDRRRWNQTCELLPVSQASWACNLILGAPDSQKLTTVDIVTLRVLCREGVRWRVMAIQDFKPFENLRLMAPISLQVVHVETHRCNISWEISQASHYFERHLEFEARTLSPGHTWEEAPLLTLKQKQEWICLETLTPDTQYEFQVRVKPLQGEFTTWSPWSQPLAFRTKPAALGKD
Chain of Rhesus IL-2Rα, polyhistidine-tagged (rhesus) (Q5MNY4 22-240 limits assumed): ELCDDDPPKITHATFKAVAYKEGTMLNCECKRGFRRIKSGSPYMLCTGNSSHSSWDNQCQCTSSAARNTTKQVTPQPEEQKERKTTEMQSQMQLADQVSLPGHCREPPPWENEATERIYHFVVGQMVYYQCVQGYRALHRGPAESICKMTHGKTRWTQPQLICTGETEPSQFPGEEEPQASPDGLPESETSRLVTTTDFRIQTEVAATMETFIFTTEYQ
Chain of Rat IL-2Rα, polyhistidine-tagged (rat) (P26897 22-235 limits assumed): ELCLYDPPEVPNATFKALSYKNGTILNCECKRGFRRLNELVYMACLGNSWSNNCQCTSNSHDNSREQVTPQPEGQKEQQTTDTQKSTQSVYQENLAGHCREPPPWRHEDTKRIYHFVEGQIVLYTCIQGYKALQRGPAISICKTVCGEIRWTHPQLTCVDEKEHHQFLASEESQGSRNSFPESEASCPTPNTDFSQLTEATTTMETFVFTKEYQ
Chain of Human IL-2Rα, polyhistidine-tagged (human) (P01589 22-213 limits assumed): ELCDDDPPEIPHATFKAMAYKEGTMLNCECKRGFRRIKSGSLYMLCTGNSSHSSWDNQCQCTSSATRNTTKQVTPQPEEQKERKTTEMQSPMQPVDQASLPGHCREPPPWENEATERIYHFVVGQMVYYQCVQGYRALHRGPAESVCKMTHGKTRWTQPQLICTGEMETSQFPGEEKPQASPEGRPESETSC
Chain of Human IL-2Rβγ on CD8+ T and NK cells in whole blood (human) (P14784 27-551, chain 1 of 2): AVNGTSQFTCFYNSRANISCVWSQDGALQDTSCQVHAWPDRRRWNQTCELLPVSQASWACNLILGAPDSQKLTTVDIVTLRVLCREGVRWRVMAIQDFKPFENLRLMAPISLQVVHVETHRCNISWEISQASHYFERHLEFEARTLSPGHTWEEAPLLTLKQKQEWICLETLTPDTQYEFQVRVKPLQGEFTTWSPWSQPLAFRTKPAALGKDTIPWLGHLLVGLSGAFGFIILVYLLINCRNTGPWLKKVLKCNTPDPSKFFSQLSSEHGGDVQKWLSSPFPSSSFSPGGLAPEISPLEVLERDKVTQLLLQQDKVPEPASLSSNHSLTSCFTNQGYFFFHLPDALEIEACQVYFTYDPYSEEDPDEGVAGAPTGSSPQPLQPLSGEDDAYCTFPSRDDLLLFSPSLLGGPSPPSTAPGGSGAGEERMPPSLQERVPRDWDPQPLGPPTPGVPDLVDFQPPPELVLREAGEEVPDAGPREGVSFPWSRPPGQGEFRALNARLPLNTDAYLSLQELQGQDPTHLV
Chain of Human IL-2Rβγ on CD8+ T and NK cells in whole blood (human) (P31785 23-369, chain 2 of 2, further chain): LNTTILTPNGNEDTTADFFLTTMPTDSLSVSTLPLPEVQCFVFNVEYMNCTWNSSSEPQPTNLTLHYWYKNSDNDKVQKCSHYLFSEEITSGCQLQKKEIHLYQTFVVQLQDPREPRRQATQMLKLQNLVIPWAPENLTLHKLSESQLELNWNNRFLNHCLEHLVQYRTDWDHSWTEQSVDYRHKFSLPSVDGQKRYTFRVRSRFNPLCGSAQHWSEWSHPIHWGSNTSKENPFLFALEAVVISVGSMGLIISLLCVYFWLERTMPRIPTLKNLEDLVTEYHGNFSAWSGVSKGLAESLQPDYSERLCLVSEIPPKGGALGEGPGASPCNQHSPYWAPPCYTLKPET

- Ave. EC50 of engaging IL-2Rαβ subunits (receptor engagement study, N = 3) [1]: 7 nM
- Ave. EC50 of engaging IL-2Rβγ subunits (receptor engagement study, N = 3) [2]: 3.5 nM
Substance: R38Q/Y45F-IL-2 Fc, bivalent (Fc fusion)

- Ave. EC50 of engaging IL-2Rαβ subunits (receptor engagement study, N = 3) [1]: 400 nM
- Ave. EC50 of engaging IL-2Rβγ subunits (receptor engagement study, N = 3) [2]: 2 nM
Substance: R38Q/Y45F-IL-2 Fc, monovalent (from UniProt P01857 104-329) (Fc fusion)

- KD/KD (hu) [3]: 1.8
- KD/KD (hu) [4]: 1
- KD/KD (hu) [5]: 1
- KD/KD (hu) [6]: 3.1
- KD/KD (hu) [7]: 1.1
- EC50; pSTAT5 normalized gMFI in NK cells, human whole blood (Hu donor 2), flow cytometry [8]: 0.35 nM
- EC50; pSTAT5 normalized gMFI in CD8 cells, rhesus whole blood (Rh donor 20-1068), flow cytometry [9]: 4.05 nM
- EC50; pSTAT5 normalized gMFI in CD8 cells, human whole blood (Hu donor 2), flow cytometry [10]: 1.41 nM
- KD/KD (hu) [11]: 1.4
- KD/KD (hu) [12]: 1
- Kd [13]: 49 nM
- Kd [14]: 29 nM
- Kd [15]: 1300 nM
- Kd [16]: 28 nM
- Kd [17]: 87 nM
- Kd [18]: 30 nM
- Kd [19]: 940 nM
- EC50; pSTAT5 normalized gMFI in NK cells, rhesus whole blood (Rh donor 20-1068), flow cytometry [20]: 2.44 nM
Substance: WT-IL-2 Fc (from UniProt P01857 104-329) (Fc fusion)

- Ave. EC50 of engaging IL-2Rαβ subunits (receptor engagement study, N = 3) [1]: 30 nM
- Ave. EC50 of engaging IL-2Rβγ subunits (receptor engagement study, N = 3) [2]: 2.3 nM
Substance: Y45R-IL-2 Fc, bivalent (Fc fusion)
